This passage reports response (arbitrary units) results from PMC4585930.

This assay addresses GFP-CRN7 WT (UniProt Q55E54). The experiment in a line: pull-down, western blot band intensity. Conditions: read off a plot. For orientation: Immunoblotting shows a protein as a band on a membrane.
UniProt Q55E54, sequence (Q55E54 whole entry): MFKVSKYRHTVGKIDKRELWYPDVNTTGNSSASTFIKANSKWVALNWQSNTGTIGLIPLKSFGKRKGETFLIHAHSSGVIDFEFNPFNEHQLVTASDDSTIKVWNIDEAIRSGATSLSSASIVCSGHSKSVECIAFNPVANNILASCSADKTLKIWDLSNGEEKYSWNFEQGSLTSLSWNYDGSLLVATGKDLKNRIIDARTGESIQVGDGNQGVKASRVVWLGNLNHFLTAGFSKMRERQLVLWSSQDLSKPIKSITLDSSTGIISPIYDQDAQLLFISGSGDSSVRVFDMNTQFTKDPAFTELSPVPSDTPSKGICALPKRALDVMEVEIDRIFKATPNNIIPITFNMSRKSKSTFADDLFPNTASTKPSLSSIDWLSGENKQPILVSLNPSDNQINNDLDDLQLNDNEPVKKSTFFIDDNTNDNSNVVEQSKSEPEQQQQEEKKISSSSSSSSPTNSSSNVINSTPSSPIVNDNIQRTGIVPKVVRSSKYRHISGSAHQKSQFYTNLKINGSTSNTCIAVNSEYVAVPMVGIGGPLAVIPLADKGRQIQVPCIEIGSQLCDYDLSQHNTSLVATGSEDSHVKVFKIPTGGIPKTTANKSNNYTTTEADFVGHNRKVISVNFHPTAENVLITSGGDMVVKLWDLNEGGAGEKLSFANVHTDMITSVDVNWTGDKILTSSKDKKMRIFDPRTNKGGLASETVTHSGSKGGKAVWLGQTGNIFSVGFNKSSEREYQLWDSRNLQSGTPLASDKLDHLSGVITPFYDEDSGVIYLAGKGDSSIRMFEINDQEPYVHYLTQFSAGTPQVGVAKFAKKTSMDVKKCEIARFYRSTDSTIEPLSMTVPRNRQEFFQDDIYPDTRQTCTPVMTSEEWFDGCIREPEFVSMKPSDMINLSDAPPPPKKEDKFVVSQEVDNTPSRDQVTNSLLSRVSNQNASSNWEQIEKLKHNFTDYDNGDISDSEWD

As to “GST-RacC (from UniProt P34149) D to A (Mut2)”, the response (arbitrary units) (RacC Mut2 loaded with GDP, parent: est. 61) is 57 and the response (arbitrary units) (RacC Mut2 loaded with GTPγS, parent: est. 39) stood at 43.

With “GST-RacC (from UniProt P34149) DD to QQ (Mut5)”, the response (arbitrary units) was determined as 51 (RacC Mut5 loaded with GDP, parent: est. 61) and 49 (RacC Mut5 loaded with GTPγS, parent: est. 39).

For “GST-RacC (from UniProt P34149) ED to KK (Mut1)”, the response (arbitrary units) is, setting by setting: (RacC Mut1 loaded with GDP, parent: est. 61) 52; (RacC Mut1 loaded with GTPγS, parent: est. 39) 48.

As to “GST-RacC (from UniProt P34149) EE to KK (Mut4)”, the response (arbitrary units) (RacC Mut4 loaded with GDP, parent: est. 61) worked out at 54 and the response (arbitrary units) (RacC Mut4 loaded with GTPγS, parent: est. 39) came to 46.

Consider GST-RacC (from UniProt P34149) Y40K, for which the response (arbitrary units) is, setting by setting: (RacC Mut3 loaded with GDP, parent: est. 61) 64; (RacC Mut3 loaded with GTPγS, parent: est. 39) 36.
